The chains are these.
B4: Ssl2 (natural protein)
chain: MTDVEGYQPKSKGKIFPDMGESFFSSDEDSPATDAEIDENYDDNRETSEGRGERDTGAMVTGLKKPRKKTKSSRHTAADSSMNQMDAKDKALLQDTNSDIPADFVPDSVSGMFRSHDFSYLRLRPDHASRPLWISPSDGRIILESFSPLAEQAQDFLVTIAEPISRPSHIHEYKITAYSLYAAVSVGLETDDIISVLDRLSKVPVAESIINFIKGATISYGKVKLVIKHNRYFVETTQADILQMLLNDSVIGPLRIDSDHQVQPPEDVLQQQLQQTAGKPATNVNPNDVEAVFSAVIGGDNEREEEDDDIDAVHSFEIANESVEVVKKRCQEIDYPVLEEYDFRNDHRNPDLDIDLKPSTQIRPYQEKSLSKMFGNGRARSGIIVLPCGAGKTLVGITAACTIKKSVIVLCTSSVSVMQWRQQFLQWCTLQPENCAVFTSDNKEMFQTESGLVVSTYSMVANTRNRSHDSQKVMDFLTGREWGFIILDEVHVVPAAMFRRVVSTIAAHAKLGLTATLVREDDKIGDLNFLIGPKLYEANWMELSQKGHIANVQCAEVWCPMTAEFYQEYLRETARKRMLLYIMNPTKFQACQFLIQYHERRGDKIIVFSDNVYALQEYALKMGKPFIYGSTPQQERMNILQNFQYNDQINTIFLSKVGDTSIDLPEATCLIQISSHYGSRRQEAQRLGRILRAKRRNDEGFNAFFYSLVSKDTQEMYYSTKRQAFLVDQGYAFKVITHLHGMENIPNLAYASPRERRELLQEVLLKNEEAAGIEVGDDADNSVGRGSNGHKRFKSKAVRGEGSLSGLAGGEDMAYMEYSTNKNKELKEHHPLIRKMYYKNLKK

The target in one assay is T1, Rad4-Rad23-Rad33 complex (yeast, UniProt P14736 1-754; P32628 1-398; Q04231 1-177).
T1 sequence 1: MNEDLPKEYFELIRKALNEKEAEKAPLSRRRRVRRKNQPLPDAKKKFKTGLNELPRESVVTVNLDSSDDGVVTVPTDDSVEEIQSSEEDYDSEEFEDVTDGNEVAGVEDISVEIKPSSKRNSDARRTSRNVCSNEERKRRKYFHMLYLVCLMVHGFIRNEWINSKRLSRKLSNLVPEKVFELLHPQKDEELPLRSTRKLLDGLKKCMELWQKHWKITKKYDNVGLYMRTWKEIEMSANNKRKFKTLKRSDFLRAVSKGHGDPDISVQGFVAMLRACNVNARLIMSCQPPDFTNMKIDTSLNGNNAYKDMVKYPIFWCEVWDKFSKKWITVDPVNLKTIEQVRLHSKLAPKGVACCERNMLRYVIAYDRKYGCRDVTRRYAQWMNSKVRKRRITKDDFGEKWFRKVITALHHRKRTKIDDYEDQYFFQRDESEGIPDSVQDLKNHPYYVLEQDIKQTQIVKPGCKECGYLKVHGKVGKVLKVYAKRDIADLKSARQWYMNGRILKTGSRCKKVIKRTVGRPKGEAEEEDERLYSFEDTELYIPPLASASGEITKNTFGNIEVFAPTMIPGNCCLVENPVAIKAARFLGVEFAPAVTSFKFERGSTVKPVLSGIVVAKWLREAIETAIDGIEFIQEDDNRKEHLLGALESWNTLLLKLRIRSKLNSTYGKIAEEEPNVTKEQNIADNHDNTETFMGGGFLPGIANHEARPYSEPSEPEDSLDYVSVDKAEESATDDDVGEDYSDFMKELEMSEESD
T1 sequence 2: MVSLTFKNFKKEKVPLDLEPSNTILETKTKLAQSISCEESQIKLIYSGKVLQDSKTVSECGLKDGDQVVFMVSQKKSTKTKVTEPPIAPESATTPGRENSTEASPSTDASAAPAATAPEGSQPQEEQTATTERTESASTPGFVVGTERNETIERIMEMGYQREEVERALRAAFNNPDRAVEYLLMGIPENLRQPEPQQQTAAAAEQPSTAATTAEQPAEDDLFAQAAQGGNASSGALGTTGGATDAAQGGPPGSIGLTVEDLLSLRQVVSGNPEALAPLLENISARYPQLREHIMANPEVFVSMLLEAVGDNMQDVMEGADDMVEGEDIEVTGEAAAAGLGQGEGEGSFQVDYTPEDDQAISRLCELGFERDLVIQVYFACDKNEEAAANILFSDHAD
T1 sequence 3: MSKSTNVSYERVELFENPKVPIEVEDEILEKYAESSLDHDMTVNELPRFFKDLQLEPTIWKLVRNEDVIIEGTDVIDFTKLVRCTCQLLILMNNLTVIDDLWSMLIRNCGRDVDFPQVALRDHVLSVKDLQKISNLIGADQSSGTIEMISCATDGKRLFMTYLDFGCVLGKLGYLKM
Put plainly: cross-linking.

The target of a further assay is T2, Rad3 (yeast (endogenous, purified from yeast), UniProt P06839 1-778).
T2 sequence: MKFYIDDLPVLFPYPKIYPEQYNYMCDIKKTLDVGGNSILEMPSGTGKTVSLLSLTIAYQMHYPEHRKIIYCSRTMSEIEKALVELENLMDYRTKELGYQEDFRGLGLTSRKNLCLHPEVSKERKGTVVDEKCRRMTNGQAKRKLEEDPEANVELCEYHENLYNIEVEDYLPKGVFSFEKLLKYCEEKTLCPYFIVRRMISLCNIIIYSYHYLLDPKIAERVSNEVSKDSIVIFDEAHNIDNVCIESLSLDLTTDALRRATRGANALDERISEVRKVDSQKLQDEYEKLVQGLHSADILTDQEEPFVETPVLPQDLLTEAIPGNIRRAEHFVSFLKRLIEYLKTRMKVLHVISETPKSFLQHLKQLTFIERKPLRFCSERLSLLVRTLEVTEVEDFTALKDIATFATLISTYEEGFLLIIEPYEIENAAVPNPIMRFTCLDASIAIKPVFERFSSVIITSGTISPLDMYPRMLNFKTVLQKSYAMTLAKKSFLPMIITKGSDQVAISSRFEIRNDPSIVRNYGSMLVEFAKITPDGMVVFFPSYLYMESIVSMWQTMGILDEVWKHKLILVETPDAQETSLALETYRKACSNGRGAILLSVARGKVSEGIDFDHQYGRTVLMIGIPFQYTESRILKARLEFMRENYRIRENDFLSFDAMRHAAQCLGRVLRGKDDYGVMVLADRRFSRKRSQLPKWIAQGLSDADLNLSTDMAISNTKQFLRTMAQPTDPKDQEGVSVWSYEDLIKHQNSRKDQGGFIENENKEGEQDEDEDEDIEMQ
Put plainly: cryo-EM structure.

Another assay addresses T3, Rad4 (yeast, UniProt P14736 1-754).
T3 sequence: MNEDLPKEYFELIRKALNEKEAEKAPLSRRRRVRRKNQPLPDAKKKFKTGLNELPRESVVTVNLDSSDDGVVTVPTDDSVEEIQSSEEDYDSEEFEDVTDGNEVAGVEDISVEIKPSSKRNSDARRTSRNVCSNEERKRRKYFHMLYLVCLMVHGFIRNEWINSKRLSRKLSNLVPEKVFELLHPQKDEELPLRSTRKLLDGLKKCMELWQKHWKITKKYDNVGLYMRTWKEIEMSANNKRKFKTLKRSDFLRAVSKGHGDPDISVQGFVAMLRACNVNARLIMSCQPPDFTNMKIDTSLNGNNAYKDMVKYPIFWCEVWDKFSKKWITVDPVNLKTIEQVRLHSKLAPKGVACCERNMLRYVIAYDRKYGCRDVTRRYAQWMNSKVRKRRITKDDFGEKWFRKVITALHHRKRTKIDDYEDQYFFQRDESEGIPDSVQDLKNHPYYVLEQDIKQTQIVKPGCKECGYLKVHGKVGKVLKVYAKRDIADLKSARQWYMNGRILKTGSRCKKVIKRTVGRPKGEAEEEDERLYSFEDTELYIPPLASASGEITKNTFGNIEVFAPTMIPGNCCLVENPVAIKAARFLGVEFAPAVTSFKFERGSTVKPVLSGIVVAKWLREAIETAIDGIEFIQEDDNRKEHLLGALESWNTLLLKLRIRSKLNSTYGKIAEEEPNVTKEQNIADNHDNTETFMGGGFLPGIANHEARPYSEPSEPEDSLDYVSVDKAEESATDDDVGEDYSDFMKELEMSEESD
Put plainly: cryo-EM structure.

The assay “Ssl2” concerns the target B4. Description: cryo-EM structure.

Consider four molecules from publication doi:10.1101/2021.01.14.426755 (bioRxiv, 2021).

B1: Tfb1 (natural protein)
chain: MSHSGAAIFEKVSGIIAINEDVSPAELTWRSTDGDKVHTVVLSTIDKLQATPASSEKMMLRLIGKVDESKKRKDNEGNEVVPKPQRHMFSFNNRTVMDNIKMTLQQIISRYKDADIYEEKRRREESAQHTETPMSSSSVTAGTPTPHLDTPQLNNGAPLINTAKLDDSLSKEKLLTNLKLQQSLLKGNKVLMKVFQETVINAGLPPSEFWSTRIPLLRAFALSTSQKVGPYNVLSTIKPVASSENKVNVNLSREKILNIFENYPIVKKAYTDNVPKNFKEPEFWARFFSSKLFRKLRGEKIMQNDRGDVIIDRYLTLDQEFDRKDDDMLLHPVKKIIDLDGNIQDDPVVRGNRPDFTMQPGVDINGNSDGTVDILKGMNRLSEKMIMALKNEYSRTNLQNKSNITNDEEDEDNDERNELKIDDLNESYKTNYAIIHLKRNAHEKTTDNDAKSSADSIKNADLKVSNQQMLQQLSLVMDNLINKLDLNQVVPNNEVSNKINKRVITAIKINAKQAKHNNVNSALGSFVDNTSQANELEVKSTLPIDLLESCRMLHTTCCEFLKHFYIHFQSGEQKQASTVKKLYNHLKDCIEKLNELFQDVLNGDGESMSNTCTAYLKPVLNSITLATHKYDEYFNEYNNNSN
On to B1, for which the binding result in the assay with Rad4-Rad23-Rad33 complex, with Rad3 and with Rad4 was “binds” throughout.

B2: Rad33 (natural protein)
chain: MSKSTNVSYERVELFENPKVPIEVEDEILEKYAESSLDHDMTVNELPRFFKDLQLEPTIWKLVRNEDVIIEGTDVIDFTKLVRCTCQLLILMNNLTVIDDLWSMLIRNCGRDVDFPQVALRDHVLSVKDLQKISNLIGADQSSGTIEMISCATDGKRLFMTYLDFGCVLGKLGYLKM
B2: the binding result with Ssl2 and in the assay with Rad4 was “binds” in each case.

B3: Ssl1 (natural protein)
chain: MAPVVISESEEDEDRVAITRRTKRQVHFDGEGDDRVDQQQQQHSSSHRDRDKHVQRKKKKRLSNRNLQGSNGGYAWEDEIKRSWDLVKVDDEGDMASLVASIVEARKKRTAKKNITPYQRGIIRSLILTLDCSEAMLEKDLRPNRHAMIIQYAIDFVHEFFDQNPISQMGIIIMRNGLAQLVSQVSGNPQDHIDALKSIRKQEPKGNPSLQNALEMARGLLLPVPAHCTREVLIVFGSLSTTDPGDIHQTIDSLVSEKIRVKVLGLSAQVAICKELCKATNYGDESFYKILLDETHLKELFNEAVTPLPVNKINKGFTLVKMGFPTRIFEDTPTFCSCHSKLVYGGYFCPNCHSKVCSLPTVCPCCDLMLILSTHLARSYHHLMPLKTFAEVPTTEKFRSEDCFSCQSRFPILKNHKNGKLLTSSRYRCEDCKQEFCVDCDVFIHEILHNCPGCESKPVIT
B3: in the assay with Rad3, the binding result is on record as “binds”. Turning to B4, the binding result with Rad4-Rad23-Rad33 complex is “binds”.
